The nature of data set [1]: Aggregation / sample stability of purified PDZ2 constructs. In kind it is physicochemical. From the text:
The biochemical behavior of PDZD7 PDZ2 drastically differs from PDZ1, with or without its C-terminal extension. […] In order to further establish the accessible folding states of the PDZ2 extension, we used the same metadynamics approach as for PDZ1ext and probed its conformational energy landscape (Figure 3C).

Data set [2] in a line: nanoDSF thermostability of unbound PDZD7 constructs. As to conditions: MES pH6 (50 mM), micromolar concentrations, without ligand. It counts as physicochemical. How it is done:
(§1) NanoDSF experiments were performed on a Prometheus (Nanotemper) spectrometer using Prometheus NT.48 Series nanoDSF Grade High Sensitivity Capillaries. All samples were prepared in MES pH6 (50 mM) at micromolar concentrations. For the complexes, ADGRV1pbm peptide was added at a final concentration of 756 μM, diluting the samples by 5%.
On the technique in general: In DSF a fluorescence change marks the thermal transition of the protein.

Data set [3] relates to PDZD7 PDZ2ext WT. Kind of data set: nanoDSF thermostability of PDZ2ext WT in complex. In kind it is binding, murine. As to conditions: MES pH6 (50 mM), PDZ2ext WT + ADGRV1pbm 756 μM, unbound Tm 38.5°C. As for the experimental part: as §1
In data set [4] the test system is ADGRV1 β subunit. Kind of data set: Pull-down of ADGRV1 β subunit by full-length PDZD7-GFP from HeLa cell lysates. As to conditions: PDZD7-GFP bait, anti-GFP beads, 4°C 1 h, western blot, vs no bait. In kind it is binding, murine. How it is done: HeLa cells were maintained in Dulbecco’s modified Eagle’s medium (DMEM) containing 10% fetal calf serum (FCS). PDZD7 constructs correspond to the full-length murine sequence in fusion with a N-terminal strep tag and a C-terminal GFP, wild-type or carrying G103R/G228R variants, cloned in a PMT3 vector. The ADGRV1 construct corresponds to the murine β subunit of the receptor (5884-6298) cloned in a pRK5 vector. Plasmids were transfected in separate HeLa cultures using 25 μg (PDZD7) and 10 μg (ADGRV1) of DNA per 10 cm dish using TurboFect™ Transfection Reagent (ThermoFisher Scientific) at 3 μl per μg of transfected DNA. Mixes were prepared in volumes of 1 ml/plate (in DMEM), vortexed and incubated up to 30 min at room temperature, cell media were renewed before transfection. After drop by drop addition of the transfection mix, cells were maintained at 37°C for 14 h for protein expression. Cells were dissociated using Gibco™ Trypsine-EDTA (0,05%), subsequently inactivated by addition of DMEM containing 10% FCS. Cells were counted, pelleted and resuspended at similar concentrations in PBS Tween 0.01%, Dodécyl-β-D-maltoside (DDM) 0.1% containing anti-proteases (buffer). Benzonase (Sigma) was added before sonication of the cells (40 mA amplitude, 10 pulses of 12 s with 18 s intervals, in ice). An identical volume of ADGRV1 β transfected cell lysate was mixed to either PDZD7 WT, G103R or G228R transfected cell lysates. PDZ proteins have different expression levels, meaning that different amounts of sample are needed to saturate the dynabeads with the PDZ proteins. Pull down experiments have been performed several times allowing us to estimate the yield of expression of each PDZ construct for a given amount of cells. […] Target proteins were detected using mouse α-GFP (LivingColors™ JL-8, Takara) and rabbit α-ADGRV1 (custom, raised against the cytoplasmic domain) antibodies (1/2000 in 5% milk TBST), as well as secondary α-mouse and α-rabbit IgG antibodies coupled to HRP (1/2000 in 5% milk TBST). […]

Data set [5] concerns ADGRV1. As to conditions: cellular models, PDZ-PBM dependent; ref Hu et al., 2014; cited from earlier work. From the text:
Cochlear hair cells are the primary receptors for the detection of sound-induced vibrations. […] The shape of the bundle is critical for the cohesive deflection of the stereocilia necessary for the cell function. Morphogenesis of the hair bundle is regulated during cochlear development, but the underlying signaling pathways remain elusive. The ankle link protein complex, transiently expressed at the base of the stereocilia, is the main candidate for regulating bundle morphogenesis, with pathogenic varia ... || PDZD7 and ADGRV1 are the main candidate proteins for regulating the signaling associated with the Usher2 complex. PDZD7 is primarily a scaffolding protein, with several protein-protein interaction domains (three PDZ domains and one HHD) likely recruiting several partners at the ankle links anchoring sites ([Du et al., 2018]).

Data set [6] deals with PDZD7 PDZ1ext WT. The data set is described as follows: nanoDSF thermostability of PDZ1ext WT in complex. As to conditions: MES pH6 (50 mM), PDZ1ext WT + ADGRV1pbm 756 μM, unbound Tm 61.6°C. In kind it is binding, murine. How it is done: as §1

Entries after “also recorded” stand apart in the source; their conditions may differ.

B1: PDZ2ext WT: second PDZ of mouse PDZD7 with its C-terminal extension (G206 to G313) (protein)
chain: GVRRIVHLYTTSDDFCLGFNIRGGKEFGLGIYVSKVDHGGLAEENGIKVGDQVLAANGVRFDDISHSQAVEVLKGQTHIMLTIKETGRYPAYKEMVSEYCWLDRLSNG
modifications: left off: GST, N-terminal, cleaved
Regarding B1, the sample stability entry in data set [1] (15N-labelled PDZ2 constructs, NMR) is reported as “stable for a few hours only”. For the same molecule, the aggregation result in data set [1] (at temperatures higher than 15 °C, despite extensive screening of buffer conditions) is “Rapid aggregation”. Also, the “Tm (Unbound)” value in data set [2] is 38.5 °C. For the same molecule, the “Tm (Bound)” value in data set [3] came out at 47.2 °C.

B2: WT PDZD7: full-length murine PDZD7 in fusion with N-terminal strep tag and C-terminal GFP (pull-down) (protein)
chain: MARGFTVGFDPLGLGELSSGSLSSVSSRGHLGSDSGSTATRYLLRKQQRLLNGPSRGIRASSPMGRVILINSPIEANSDESDIIHAVRVEKSPSGRLGFSVRGGSEHGLGIFVSKVEEGSSAERAGLCVGDKITEVNGLSLESTTMGSAVRLLTSSSCLHMMVRRMGRVPGIKFSKEKTTWVDVVNRRLVVEKCSSTPSDRSSEDGVRRIVHLYTTSDDFCLGFNIRGGKEFGLGIYVSKVDHGGLAEENGIKVGDQVLAANGVRFDDISHSQAVEVLKGQTHIMLTIKETGRYPAYKEMVSEYCWLDRLSNGVLQQLSPASESSSSVSSYASSAPCSSGSLPSDRMDVCLGPEEPTSHGPGWGRADTAMQTEPDLDSRVETWCSVRPTVILRDTAIRSDGPSSTRHLDSALSESPKTALLLALSRPRTPITRSQSHLTLWEEKKQRKKEKSGSSGEKGALQRSKTLMNLFFKGGRQGRPAGDGHREAWTLDSRSPTKVRPRLDLEKAGSVGPVQKFVTWRLRRDRERGRALLSARSGSPSGQAPTVNEQVQAWESRRPLIQDLARRLLTDDEVLAVTRHCSRYVHEGGVEDLVRPLLAILDRPTKLLLLRDIRSVVAPTDLGRFDSMVMPVELEAFEALKSRAVGPSALRPTRQDTPPKRHLITPVPDSRGGFYLLPVNSSEDEDGEIREKLGVLKVSLGASAPHHKGIPPLQDVPVDAFSLRRGACAPPPQPPPVAPRPPRPNWLLTEPLSREDTQQNQSQTPAQSCSRSRSRSRSRSHSRGQGKSPGRRRSPSPAPIATAATANGRYHRPRKARPLLPRLLDGQVAKVGARQGPLENGRIAEEAVGNVSTGALRTITLSKMKQSLGISISGGIESKVQPMVKIEKIFPGGAAFLCGDLQAGFELVAVDGESLEQVTHQRAVDTIRRAYRNKAREPMELVVRVPGPGLLPLASDLRVVKDQSLAPDCPSALGPVDDARILTQLPPPEARQLQQSLSSALKVPQSIPKLSPILKDPHDPS
modifications: left off: strep tag, N-terminal, kept | GFP, C-terminal, kept
B2: the “binding of ADGRV1 β subunit (pull-down)” value in data set [4] was “a clear band is observed”. Further, the “effect on ADGRV1 GPCR activity” value in data set [5] is “downregulates the GPCR activity and restores cAMP levels; also recorded: downregulates ADGRV1 GPCR activity”.

B3: PDZ1ext WT: first PDZ of mouse PDZD7 with its C-terminal extension (A81 to E192) (protein, UniProt E9Q9W7 81-192, looked up, fragment)
chain: SDIIHAVRVEKSPSGRLGFSVRGGSEHGLGIFVSKVEEGSSAERAGLCVGDKITEVNGLSLESTTMGSAVRLLTSSSCLHMMVRRMGRVPGIKFSKEKTTWVDVVNRRLVVE
Regarding B3, in data set [2], the “Tm (Unbound)” value is 61.6 °C. In data set [6], the “Tm (Bound)” value stood at 61.8 °C.

(Values after paper PMC9274004, “Deciphering the Molecular Interaction Between the Adhesion G Protein-Coupled Receptor ADGRV1 and its PDZ-Containing Regulator PDZD7” (Frontiers in Molecular Biosciences, 2022).)
